According to the supplement of paper PMC10567573:

B1: VTI1B (parent)
chain: ANETLAEMEEELRYAPLSFRNPMM
B2: FANCE (parent)
chain: AQVLMLGQILELPWKEETFLVLQS

Variants of: B1
Assay: protein stability index of a GFP-peptide fusion (GPS, HEK-293T) (PSI 1-6); higher = more stable
Settings: c terminus: a fixed tail appended
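Also: lentivirally expressed fusions sorted by FACS into six bins by GFP to DsRed ratio, PSI derived from sequencing read proportions per bin multiplied by bin number.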

Protein stability index: each site, then its substitutions
N2: A 2.91
A1: C 2.39 | E 2.72 | F 1.81 | M 2.65 | G 3.02 | L 2.14 | W 2.82 | P 2.37 | H 2.16 | S 2.49 | R 1.46 | V 1.34 | K 2.04 | T 2.36 | N 2.27 | D 2.69 | I 1.91 | Y 2.54 | Q 1.92

Variants of: B2
Assay: as above
Settings: c terminus: a fixed tail appended

Protein stability index: each site, then its substitutions
E16: M 2.5 | L 3.01 | K 2.78 | F 4.03 | Q 3.56 | A 3.98 | T 3.35 | R 1.97 | V 3.46 | H 3.11 | G 2.03 | D 1.67 | Y 3.33 | N 2.23
V21: F 2.56 | R 3.15 | N 2.3 | I 2.06 | H 1.77 | A 3.08 | P 2.17 | Y 3.3 | G 3.02 | E 2.57 | Q 2.54 | C 3.25 | T 3.45 | D 2.08 | K 2.9 | W 2.4 | S 2.05
I9: G 1.73 | R 2.46 | C 2.36 | L 3.3 | K 1.6 | P 2.75 | F 3.22 | T 2.91 | A 3.41 | Q 1.68 | D 2.85 | E 1.63 | S 2.09 | N 1.7 | M 2.82 | H 2.26
T18: S 2.84 | A 1.7 | N 4.29 | F 3.58 | P 1.79 | R 4.64 | Q 2.45 | H 3.02 | G 3.68 | D 1.84 | M 2.92 | Y 2.29 | L 2.16
W14: G 2.07 | E 2.01 | S 3.07 | R 4.06 | Y 2.51 | D 1.58 | F 2.72 | K 1.96 | I 2.95 | H 3.52 | L 2.21 | N 3.44 | T 2.08 | C 2.55 | P 1.83
G7: R 4.09 | Q 2.19 | S 2.32 | D 2.12 | P 2.51 | W 3.13 | F 2.22 | C 2.25 | V 2.8 | N 2.85 | I 3.43 | E 3.09
L4: H 1.66 | G 2.25 | M 3.29 | S 2 | P 2.18 | K 2.13 | W 2.28 | Q 2.4 | N 2.04 | R 2.68 | T 2.7 | E 3.28 | Y 2.82
L12: M 3.18 | E 2.39 | W 2.1 | I 2.49 | P 4.52 | G 3.1 | Q 2.95 | Y 2.6 | T 2.91 | S 2.69 | A 3.6 | H 2.4 | N 1.94 | R 3.1 | K 2.57 | F 2.48 | D 2.26 | C 3.49
Q8: H 2.57 | F 2.51 | M 2.39 | L 3.68 | A 2.48 | E 1.35 | R 2.63 | Y 3.2 | W 2.25 | S 2.42 | I 4.26 | V 3.43 | T 2.34 | G 4.12
E11: V 3.41 | I 1.47 | L 1.81 | D 3.64 | Y 3.17 | A 4.02 | T 2.47 | H 1.11 | K 2.65 | R 2.01 | P 3.01 | M 5.04 | G 2.17 | F 3.3 | C 5.4
